The experiment concerns the target 6His-PfJ (4.1R binding region of Plasmodium falciparum erythrocyte binding antigen-181, aa 945-1097) (P. falciparum) (UniProt Q8I2B4). Nature of the experiment: pull-down; ~700 ng 6His-PfJ coupled to His-Select magnetic beads, GST-4.1R domain (150 ng to 2 μg; heat denatured protein as control) added for 1 hr at room temperature, rinsed with TBS, eluted with 1% SDS, SDS-PAGE with scanning densitometry; Kd a rough estimate from linear transformations of three curves.

The source of these data is publication PMC1635724.

As to “GST-10 kDa domain of human erythrocyte protein 4.1 (4.1R) (domain or fragment)”, the Kd is 745 nM.

The term Kd denotes the concentration at which binding is half-saturated.
